T1: Human ST2 (human, UniProt Q01638 19-328, limits assumed)
T1 construct: also called human ST2 protein; Interleukin 1 receptor-like 1
T1 sequence (looked up): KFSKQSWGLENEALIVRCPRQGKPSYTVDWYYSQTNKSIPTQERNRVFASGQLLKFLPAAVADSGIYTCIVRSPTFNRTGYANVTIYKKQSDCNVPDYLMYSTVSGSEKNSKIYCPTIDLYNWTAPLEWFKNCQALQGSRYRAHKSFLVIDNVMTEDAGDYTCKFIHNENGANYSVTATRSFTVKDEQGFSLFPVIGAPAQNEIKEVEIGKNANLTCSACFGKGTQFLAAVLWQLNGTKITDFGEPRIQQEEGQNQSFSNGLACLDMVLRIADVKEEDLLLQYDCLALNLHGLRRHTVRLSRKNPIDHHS

T2: Mouse ST2 (mouse, UniProt P14719 27-332, limits assumed)
T2 construct: also called mouse ST2 protein
T2 sequence (looked up): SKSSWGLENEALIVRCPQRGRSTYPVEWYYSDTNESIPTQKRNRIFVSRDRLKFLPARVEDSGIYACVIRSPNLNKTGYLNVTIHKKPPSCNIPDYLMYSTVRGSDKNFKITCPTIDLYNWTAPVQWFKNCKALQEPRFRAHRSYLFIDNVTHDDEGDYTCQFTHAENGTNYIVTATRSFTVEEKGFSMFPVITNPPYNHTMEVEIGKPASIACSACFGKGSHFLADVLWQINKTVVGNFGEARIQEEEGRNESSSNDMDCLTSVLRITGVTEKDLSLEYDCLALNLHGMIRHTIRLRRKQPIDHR


Experiments:
Human ST2 = molecular target: T1, Human ST2; assay: SPR (Carterra), antibody immobilized, ST2 analyte
Description: (§1) Binding of the reformatted human ST2 antibodies to the human and mouse ST2 proteins was evaluated by surface plasmon resonance (SPR), using a high throughput antibody screening and characterization platform from Carterra (Salt Lake City, Utah).

Mouse ST2 = molecular target: T2, Mouse ST2; assay: SPR (Carterra), antibody immobilized, ST2 analyte, 1:1
Description: as §1

| Binder | Kd (Human ST2) | koff (Human ST2) | kon (Human ST2) | Kd (Mouse ST2) | koff (Mouse ST2) | kon (Mouse ST2) |
| --- | --- | --- | --- | --- | --- | --- |
| Human ST2 IgG1 Antibody 83 (antibody, V domains shown, IgG1; also called ST2 Antibody 83) VH: EVQLLESGGGLVKPGGSLRLSCAASGFTFSSYWMSWVRQAPGKGLEWVSAIGTAGDTYYPGSVKGRFTISRDDSKNTLYLQMNSLKTEDTAVYYCAILRRDKVWPFDYWGQGTLVTVSS VL: DIQMTQSPSSLSASVGDRVTITCRASQSISSHLHWYQQKPGKAPKLLIYAASSLQSGVPSRFSGSGSGTDFTLTISSLQPEDFATYYCQQSYSSPVTFGGGTKVEIKR | 70 nM | 0.018 s⁻¹ | 260000 M⁻¹ s⁻¹ |  |  |  |
| Human ST2 IgG1 Antibody 84 (antibody, V domains shown, IgG1; also called ST2 Antibody 84) VH: QVQLVQSGAEVKKPGSSVKVSCKASGGTFSSYALSWVRQAPGQGLEWMGGIIPIFGTANYAQKFQGRVTITADESTSTAYMELSSLRSEDTAVYYCARAAAAGTAWYFDLWGRGTLVTVSS VL: not shown | 125 nM | 0.0019 s⁻¹ | 15000 M⁻¹ s⁻¹ |  |  |  |
| Human ST2 IgG1 Antibody 85 (antibody, V domains shown, IgG1; also called ST2 Antibody 85) VH: EVQLLESGGGLVQPGGSLRLSCAASGFSFSTYWMHWVRQAPGKGLEWVSGISGGGIYTYYADSVKGRFTISRDNSKNTLYLQMNSLRAEDTAVYYCASMTYGDYYGMDVWGQGTTVTVSS VL: not shown | 554 nM | 0.068 s⁻¹ | 120000 M⁻¹ s⁻¹ |  |  |  |
| Human ST2 IgG1 Antibody 86 (antibody, V domains shown, IgG1; also called ST2 Antibody 86) VH: QVQLVQSGAEVKKPGSSVKVSCKASGGTFSNYAISWVRQAPGQGLEWMGGIIPIFGTANYAQKFQGRVTITADESTSTAYMELSSLRSEDTAVYYCAKDLGGWFNLFDPWGQGTLVTVSS VL: EIVMTQSPATLSVSPGERATLSCRASQGVSSYLAWYQQKPGQAPRLLIYGASTRATGIPARFSGSGSGTEFTLTISSLQSEDFAVYYCQQYRSFPLTFGGGTKVEIKR | 41 nM | 0.029 s⁻¹ | 720000 M⁻¹ s⁻¹ |  |  |  |
| Human ST2 IgG1 Antibody 87 (antibody, V domains shown, IgG1; also called ST2 Antibody 87) VH: QVQLVQSGAEVKKPGASVKVSCKASGYTFAGQYMHWVRQAPGQGLEWMGNINPSGGSTSYAQRFQGRVTMTRDTSTSTVYMELSSLRSEDTAVYYCARGDYSETYYYYMDVWGKGTTVTVSS VL: DIQMTQSPSSLSASVGDRVTITCRASQHINSNLNWYQQKPGKAPKLLIYGASSLQSGVPSRFSGSGSGTDFTLTISSLQPEDFATYYCQQSYTTPFTFGPGTKVDIKR | 642 nM | 0.018 s⁻¹ | 27000 M⁻¹ s⁻¹ |  |  |  |
| Human ST2 IgG1 Antibody 88 (antibody, V domains shown, IgG1; also called ST2 Antibody 88) VH: EVQLLESGGGLVQPGGSLRLSCAASGFTFSSYWMSWVRQAPGKGLEWVSSISSSGGYLYYADSVKGRFTISRDNSKNTLYLQMNSLRAEDTAVYYCARDWGLTPDYWGQGTLVTVSS VL: not shown | 543 nM | 0.13 s⁻¹ | 240000 M⁻¹ s⁻¹ |  |  |  |
| Human ST2 IgG1 Antibody 89 (antibody, V domains shown, IgG1; also called ST2 Antibody 89) VH: EVQLLESGGGLVKPGGSLRLSCAASGFTFSSYWMSWVRQAPGKGLEWVSAISGTAINTYYADSVKGRFTISRDDSKNTLYLQMNSLKTEDTAVYYCARVRRDSSGGGAFDIWGQGTMVTVSS VL: DIQMTQSPSSLSASVGDRVTITCRASQGISNNLNWYQQKPGKAPKLLIYAASSLQTGVPSRFSGSGSGTDFTLTISSLQPEDFATYYCQQSYSTPPTFGQGTKVEIKR | 102 nM | 0.024 s⁻¹ | 240000 M⁻¹ s⁻¹ |  |  |  |
| Human ST2 IgG1 Antibody 90 (antibody, V domains shown, IgG1; also called ST2 Antibody 90) VH: QVQLVQSGAEVKKPGSSVKVSCKASGYTFSDFSIHWVRQAPGQGLEWMGGMLPISHIAHYARKFQGRVTITADESTSTAYMELSSLRSEDTAVYYCARGGSSGWFEVWGQGTTVTVSS VL: DIVMTQSPLSLPVTPGEPASISCRSSQSLLHSNGYNYLDWYLQKPGQSPQLLIYAASTLQSGVPDRFSGSGSGTDFTLKISRVEAEDVGVYYCMQGAHWPPTFGQGTKLEIKR | 970 nM | 0.17 s⁻¹ | 170000 M⁻¹ s⁻¹ |  |  |  |
| Human ST2 IgG1 Antibody 91 (antibody, V domains shown, IgG1; also called ST2 Antibody 91) VH: EVQLLESGGGLVKPGGSLRLSCAASGFTFSSYWMSWVRQAPGKGLEWVSVIYSGGSTYYADSVKGRFTISRDDSKNTLYLQMNSLKTEDTAVYYCARGLGWFDPWGQGTLVTVSS VL: DIQMTQSPSSLSASVGDRVTITCQANQHIGNSLNWYQQKPGKAPKLLIFAASRLQSGVPSRFSGSGSGTDFTLTISSLQPEDFATYYCQQSYGTPLTFGGGTKVEIKR | 256 nM | 0.041 s⁻¹ | 160000 M⁻¹ s⁻¹ |  |  |  |
| Human ST2 IgG1 Antibody 92 (antibody, V domains shown, IgG1; also called ST2 Antibody 92) VH: QVQLVQSGAEVKKPGSSVKVSCKASGGSFSGQAVNWVRQAPGQGLEWMGGFVSLFGTANYAQKFQGRVTITADESTSTAYMELSSLRSEDTAVYYCARDREGLGWYFDLWGRGTLVTVSS VL: not shown | 662 nM | 0.13 s⁻¹ | 200000 M⁻¹ s⁻¹ |  |  |  |
| Human ST2 IgG1 Antibody 93 (antibody, V domains shown, IgG1; also called ST2 Antibody 93) VH: QVQLVQSGAEVKKPGSSVKVSCKASGGTFSTYAISWVRQAPGQGLEWMGGIIPSFNAPSYAQKFQGRVTITADKSTSTAYMELSSLRSEDTAVYYCARVVPAAIVGWYFDLWGRGTLVTVSS VL: DIVMTQSPLSLPVTPGEPASISCRSSQSLLHSNGYNYLDWYLQKPGQSPQLLIYAASTLQTGVPDRFSGSGSGTDFTLKISRVEAEDVGVYYCMQALQTPPTFGQGTKVEIKR | 728 nM | 0.11 s⁻¹ | 150000 M⁻¹ s⁻¹ |  |  |  |
| Human ST2 IgG1 Antibody 94 (antibody, V domains shown, IgG1; also called ST2 Antibody 94) VH: QVQLVQSGAEVKKPGSSVKVSCKASGGILNSYAITWVRQAPGQGLEWMGRIIPILGIANYAQKFQGRVTITADESTSTAYMELSSLRSEDTAVYYCVENESGPLFDYWGQGTLVTVSS VL: EIVMTQSPATLSVSPGERATLSCRASQSVYSSYLAWYQQKPGQAPRLLIYGTSSRAAGIPARFSGSGSGTEFTLTISSLQSEDFAVYYCQQYYSTPYTFGQGTKVEIKR | 483 nM | 0.062 s⁻¹ | 130000 M⁻¹ s⁻¹ |  |  |  |
| Human ST2 IgG1 Antibody 95 (antibody, V domains shown, IgG1; also called ST2 Antibody 95) VH: QVQLVQSGAEVKKPGSSVKVSCKASGYTFTSYGISWVRQAPGQGLEWMGGIIPIFGTANYAQKFQGRVTITADESTSTAYMELSSLRSEDTAVYYCARVMARRDGYNFKGGWYFDLWGRGTLVTVSS VL: DIVMTQSPLSLPVTPGEPASISCRSSQSLLHSNGYNYLDWYLQKPGQSPQLLIYAASSLQSGVPDRFSGSGSGTDFTLKISRVEAEDVGVYYCMQALETPPTFGQGTKLEIKR | 446 nM | 0.0086 s⁻¹ | 19000 M⁻¹ s⁻¹ |  |  |  |
| Human ST2 IgG1 Antibody 96 (antibody, V domains shown, IgG1; also called ST2 Antibody 96) VH: QVQLVQSGAEVKKPGSSVKVSCKASGFSFSTYGVAWVRQAPGQGLEWMGGFVPIIGSANYAQKFQGRVTITADESTSTAYMELSSLRSEDTAVYYCARDYGGNLDYWGQGTLVTVSS VL: DIVMTQSPLSLPVTPGEPASISCRSSQSLLHSNGYNYLDWYLQKPGQSPQLLIYAASSLQSGVPDRFSGSGSGTDFTLKISRVEAEDVGVYYCMQGAHWPPTFGQGTKVEIKR | 337 nM | 0.097 s⁻¹ | 290000 M⁻¹ s⁻¹ |  |  |  |
| Human ST2 IgG1 Antibody 98 (antibody, V domains shown, IgG1; also called ST2 Antibody 98) VH: EVQLLESGGGLVKPGGSLRLSCAASGFTFSSYWMSWVRQAPGKGLEWVSAISGTAINTYYADSVKGRFTISRDDSKNTLYLQMNSLKTEDTAVYYCARVRRDSSGGGAFDIWGQGTMVTVSS VL: DIQMTQSPSSLSASVGDRVTITCRASQGISNNLNWYQQKPGKAPKLLIYAASSLQTGVPSRFSGSGSGTDFTLTISSLQPEDFATYYCQQSYSTPPTFGQGTKVEIKR | 95 nM | 0.025 s⁻¹ | 270000 M⁻¹ s⁻¹ |  |  |  |
| Human ST2 IgG1 Antibody 99 (antibody, V domains shown, IgG1; also called ST2 Antibody 99) VH: EVQLLESGGGLVQPGGSLRLSCAASGFTFSDYYMNWVRQAPGKGLEWVSTISGFGESTFYADSVKGRFTISRDNSKNTLYLQMNSLRAEDTAVYYCARLGAARAFDIWGQGTTVTVSS VL: DIQMTQSPSSLSASVGDRVTITCRASQSIGSWMAWYQQKPGKAPKLLIYAASTLQSGVPSRFSGSGSGTDFTLTISSLQPEDFATYYCQQSYTTPITFGPGTKVDIKR | 192 nM | 0.089 s⁻¹ | 460000 M⁻¹ s⁻¹ |  |  |  |
| Human ST2 IgG1 Antibody 100 (antibody, V domains shown, IgG1; also called ST2 Antibody 100) VH: EVQLLESGGGLVQPGGSLRLSCAASGFTFSNYAMAWVRQAPGKGLEWVSWISGSGSYIYYADSVKGRFTISRDNSKNTLYLQMNSLRAEDTAVYYCARRGSSWSNFDYWGQGTLVTVSS VL: DIQMTQSPSSLSASVGDRVTITCRASQTISTYLNWYQQKPGKAPKLLIYDASNLETGVPSRFSGSGSGTDFTLTISSLQPEDFATYYCQQSYSTPITFGQGTKVEIKR | 342 nM | 0.074 s⁻¹ | 220000 M⁻¹ s⁻¹ |  |  |  |
| Human ST2 IgG1 Antibody 9 (antibody, V domains shown, IgG1, kappa; also called ST2 Antibody 9) VH: EVQLLESGGGLVQPGGSLRLSCAASGFAFSSHWMHWVRQAPGKGLEWVATISSGSHSIHYADSVKGRFTISRDNSKNTLYLQMNSLRAEDTAVYYCAREAGTSYYYYGMDVWGKGTTVTVSS VL: DIQMTQSPSSLSASVGDRVTITCQASQDIRNYLNWYQQKPGKAPKLLIYKASSLESGVPSRFSGSGSGTDFTLTISSLQPEDFATYYCQQSYSTPPTFGGGTKVEIKR |  |  |  | 351 nM | 0.032 s⁻¹ | 91000 M⁻¹ s⁻¹ |
| Human ST2 IgG1 Antibody 16 (antibody, V domains shown, IgG1, kappa; also called ST2 Antibody 16) VH: QVQLVQSGAEVKKPGASVKVSCKASGYTFTSHYMHWVRQAPGQGLEWMGIINPSGGSTSYAQKFQGRVTMTRDTSTSTVYMELSSLRSEDTAVYYCARAGIGYLAAHDLYYYYGMDVWGRGTLVTVSS VL: EIVMTQSPATLSVSPGERATLSCRASQSVSSNFAWYQQKPGQAPRLLIYGASTRATGIPARFSGSGSGTEFTLTISSLQSEDFAVYYCQQYYSTPYTFGQGTKVEIKR |  |  |  | 315 nM | 0.1 s⁻¹ | 320000 M⁻¹ s⁻¹ |

From patent US20210403579A1 (DELINIA, published 2021)
